Results from US20260070975A1 (SANTA ANA BIO, published 2026).

B1: hRND-2 (antibody, human IgG1, kappa, V domains shown)
VH: QVQLVQSGAEVKKPGASVKVSCKASGYAFTSYWMHWVRQAPGQRLEWMGEIYPTNGGTTYAQKFQGRVTMTVDKSTSTAYMELSRLRSDDTAVYYCTIEDFYAMDYWGQGTTVTVSS
VL: DIVMTQTPLSLSVTPGQPASISCKSSQSLLDSDGKTSLNWLLQKPGQSPQRLIYLVSKLDSGVPDRFSGSGSGTDFTLKISRVEAEDVGVYYCWQGTHFPYTFGQGTKLEIKR
notes: also called humanized RND-2; hRND-H2 / hRND-L3; copies: 2 + 2
B2: hRND-5 (antibody, human IgG1, kappa, V domains shown)
VH: QVQLVQSGAEVKKPGASVKLSCKASGYAFTSYWMHWVRQAPGQRLEWIGEIYPTNGGTTYNEKFKRRATLTVDKSTSTAYMELSRLRSDDTAVYYCTIEDFYAMDYWGQGTTVTVSS
VL: DIVMTQTPLSLSVTPGQPASISCKSSQSLLDSDGKTSLNWLLQKPGQSPQRLIYLVSKLDSGVPDRFSGSGSGTDFTLKISRVEAEDVGVYYCWQGTHFPYTFGQGTKLEIKR
notes: also called humanized RND-5; hRND-H3b / hRND-L3; copies: 2 + 2
B3: hRND-4 (antibody, human IgG1, kappa, V domains shown)
VH: QVQLVQSGAEVKKPGASVKVSCKASGYAFTSYWMHWVRQAPGQRLEWMGEIYPTNGGTTYNEKFKRRVTMTVDKSTSTAYMELSRLRSDDTAVYYCTIEDFYAMDYWGQGTTVTVSS
VL: DIVMTQTPLSLSVTPGQPASISCKSSQSLLDSDGKTSLNWLLQKPGQSPQRLIYLVSKLDSGVPDRFSGSGSGTDFTLKISRVEAEDVGVYYCWQGTHFPYTFGQGTKLEIKR
notes: also called humanized RND-4; hRND-H2b / hRND-L3; copies: 2 + 2
B4: hRND-3 (antibody, human IgG1, kappa, V domains shown)
VH: QVQLVQSGAEVKKPGASVKLSCKASGYAFTSYWMHWVRQAPGQRLEWIGEIYPTNGGTTYAQKFQGRATLTVDKSTSTAYMELSRLRSDDTAVYYCTIEDFYAMDYWGQGTTVTVSS
VL: DIVMTQTPLSLSVTPGQPASISCKSSQSLLDSDGKTSLNWLLQKPGQSPQRLIYLVSKLDSGVPDRFSGSGSGTDFTLKISRVEAEDVGVYYCWQGTHFPYTFGQGTKLEIKR
notes: also called humanized RND-3; hRND-H3 / hRND-L3; copies: 2 + 2

Key:
[1] = target: T1, Human siglec-6 expressed on the cell surface (HMC1.2 cells; HEK293 cells expressing human siglec-6) (human, UniProt O43699 27-453); assay: flow cytometry on HMC1.2 cells
T1 construct: whole, on cells; also called cell surface expressed siglec-6; CD327
T1 sequence (O43699 27-453): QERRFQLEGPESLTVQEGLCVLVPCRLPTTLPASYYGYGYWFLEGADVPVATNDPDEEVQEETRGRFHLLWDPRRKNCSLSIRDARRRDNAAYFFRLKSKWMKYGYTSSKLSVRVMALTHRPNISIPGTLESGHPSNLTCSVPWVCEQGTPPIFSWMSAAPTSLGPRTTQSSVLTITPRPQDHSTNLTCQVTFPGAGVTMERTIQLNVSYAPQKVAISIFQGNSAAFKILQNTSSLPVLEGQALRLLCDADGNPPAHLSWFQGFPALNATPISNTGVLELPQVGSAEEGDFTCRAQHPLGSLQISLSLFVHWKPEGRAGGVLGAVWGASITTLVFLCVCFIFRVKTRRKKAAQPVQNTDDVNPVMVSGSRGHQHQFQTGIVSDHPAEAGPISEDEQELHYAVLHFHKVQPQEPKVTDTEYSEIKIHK
Method: (§1) Target binding of siglec-6 antibodies to siglec-6-expressing cells was assessed by flow cytometry. Cultured HMC1.2 cells were resuspended in FACS Blocking Buffer (PBS+10% normal human serum) for 30 minutes. Following washing, cells were incubated with siglec-6 antibodies in FACS Buffer (PBS+0.5% bovine serum albumin+0.09% sodium azide) and incubated at 4° C. for 30 minutes, washed and incubated with PE-labeled anti-human or anti-mouse secondary antibodies. Cells were incubated at 4° C. for 30 minutes in the dark. Following washing, cytofluorimetric analysis was conducted using a BD FACS Symphony A3 (BD Biosciences). Cells were sorted by scatter properties and separated for single cell analysis using side scatter width vs side scatter area. Antibody binding to cells was quantitated by measuring fluorescent emissions of excitation wavelength of 561 nm using a 586/15 nm filter. All tested siglec-6 antibodies were capable of binding to cells expressing siglec-6.

[2] = target: T2, siglec 12 expressed on HEK293 cells (UniProt Q96PQ1 19-595, limits assumed); assay: flow cytometry on HEK293 cells expressing the target
T2 construct: whole, on cells; also called Siglec-6 family member
T2 sequence (Q96PQ1 19-595 limits assumed): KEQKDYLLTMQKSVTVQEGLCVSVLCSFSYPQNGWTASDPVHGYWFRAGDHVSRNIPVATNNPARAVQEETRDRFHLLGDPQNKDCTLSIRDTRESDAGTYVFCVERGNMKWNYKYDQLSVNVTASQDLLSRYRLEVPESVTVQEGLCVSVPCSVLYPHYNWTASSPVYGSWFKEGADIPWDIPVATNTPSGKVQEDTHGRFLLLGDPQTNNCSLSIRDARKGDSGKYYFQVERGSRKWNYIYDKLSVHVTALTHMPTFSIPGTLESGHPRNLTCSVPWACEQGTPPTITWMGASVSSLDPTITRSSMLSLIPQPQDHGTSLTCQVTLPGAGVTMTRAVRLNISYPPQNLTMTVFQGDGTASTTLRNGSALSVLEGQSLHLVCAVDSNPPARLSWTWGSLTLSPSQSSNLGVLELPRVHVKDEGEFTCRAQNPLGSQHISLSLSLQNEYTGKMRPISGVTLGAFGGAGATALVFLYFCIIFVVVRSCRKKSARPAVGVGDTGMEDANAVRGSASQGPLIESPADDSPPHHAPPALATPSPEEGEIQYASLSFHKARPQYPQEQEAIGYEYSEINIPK
Method: as §1, with “Cultured HEK293” for “Target binding of siglec-6 antibodies to siglec-6-expressing”, “expressing human siglec-6, cynomolgus siglec-6, or siglec 6 family members” for “was assessed by flow cytometry. Cultured HMC1.2 cells”, “anti-human” for “anti-human or anti-mouse”, “antibody.” for “antibodies.”, “Data analysis was performed using FlowJo Software.” for “All tested siglec-6 antibodies were capable of binding to cells expressing siglec-6.”

[3] = target: T3, siglec 2 expressed on HEK293 cells (UniProt P20273 20-847, limits assumed); assay: as above
T3 construct: whole, on cells; also called Siglec-6 family member
T3 sequence (looked up): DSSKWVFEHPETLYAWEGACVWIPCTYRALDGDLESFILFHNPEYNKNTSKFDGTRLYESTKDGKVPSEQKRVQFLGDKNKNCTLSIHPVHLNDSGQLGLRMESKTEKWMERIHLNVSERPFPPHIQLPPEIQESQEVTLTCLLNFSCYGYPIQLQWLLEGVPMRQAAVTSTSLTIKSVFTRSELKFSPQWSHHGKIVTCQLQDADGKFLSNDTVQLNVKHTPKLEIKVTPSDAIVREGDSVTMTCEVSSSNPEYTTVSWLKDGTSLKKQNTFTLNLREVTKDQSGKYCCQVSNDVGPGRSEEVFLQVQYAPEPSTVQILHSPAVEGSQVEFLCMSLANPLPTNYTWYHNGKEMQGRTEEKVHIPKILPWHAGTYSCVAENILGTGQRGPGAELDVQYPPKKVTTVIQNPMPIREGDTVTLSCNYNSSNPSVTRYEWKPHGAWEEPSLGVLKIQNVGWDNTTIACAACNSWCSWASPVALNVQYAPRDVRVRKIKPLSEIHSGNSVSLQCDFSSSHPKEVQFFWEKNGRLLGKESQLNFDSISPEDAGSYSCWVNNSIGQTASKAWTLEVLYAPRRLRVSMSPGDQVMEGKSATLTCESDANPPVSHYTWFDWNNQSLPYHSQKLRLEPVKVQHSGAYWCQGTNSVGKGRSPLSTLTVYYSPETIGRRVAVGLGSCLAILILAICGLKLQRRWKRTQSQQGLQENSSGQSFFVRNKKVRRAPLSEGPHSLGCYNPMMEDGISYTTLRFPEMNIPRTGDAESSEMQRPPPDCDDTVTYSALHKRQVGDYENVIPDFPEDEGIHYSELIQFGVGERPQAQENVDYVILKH
Method: as §1, with “Cultured HEK293” for “Target binding of siglec-6 antibodies to siglec-6-expressing”, “expressing human siglec-6, cynomolgus siglec-6, or siglec 6 family members” for “was assessed by flow cytometry. Cultured HMC1.2 cells”, “anti-human” for “anti-human or anti-mouse”, “antibody.” for “antibodies.”, “Data analysis was performed using FlowJo Software.” for “All tested siglec-6 antibodies were capable of binding to cells expressing siglec-6.”

[4] = target: T4, siglec 3 expressed on HEK293 cells (UniProt P20138 18-364, limits assumed); assay: as above
T4 construct: whole, on cells; also called Siglec-6 family member
T4 sequence (P20138 18-364 limits assumed): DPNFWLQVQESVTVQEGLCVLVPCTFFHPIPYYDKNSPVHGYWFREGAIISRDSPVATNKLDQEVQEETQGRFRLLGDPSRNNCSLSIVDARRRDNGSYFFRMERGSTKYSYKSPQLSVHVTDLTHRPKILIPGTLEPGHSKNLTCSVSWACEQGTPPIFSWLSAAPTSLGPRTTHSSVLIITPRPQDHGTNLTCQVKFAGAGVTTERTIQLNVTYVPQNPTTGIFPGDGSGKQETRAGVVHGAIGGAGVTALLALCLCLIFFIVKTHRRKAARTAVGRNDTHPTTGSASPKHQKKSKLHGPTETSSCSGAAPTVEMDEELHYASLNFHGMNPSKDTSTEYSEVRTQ
Method: as §1, with “Cultured HEK293” for “Target binding of siglec-6 antibodies to siglec-6-expressing”, “expressing human siglec-6, cynomolgus siglec-6, or siglec 6 family members” for “was assessed by flow cytometry. Cultured HMC1.2 cells”, “anti-human” for “anti-human or anti-mouse”, “antibody.” for “antibodies.”, “Data analysis was performed using FlowJo Software.” for “All tested siglec-6 antibodies were capable of binding to cells expressing siglec-6.”

[5] = target: T5, siglec 4 expressed on HEK293 cells (UniProt P20916 20-626, limits assumed); assay: as above
T5 construct: whole, on cells; also called Siglec-6 family member
T5 sequence (looked up): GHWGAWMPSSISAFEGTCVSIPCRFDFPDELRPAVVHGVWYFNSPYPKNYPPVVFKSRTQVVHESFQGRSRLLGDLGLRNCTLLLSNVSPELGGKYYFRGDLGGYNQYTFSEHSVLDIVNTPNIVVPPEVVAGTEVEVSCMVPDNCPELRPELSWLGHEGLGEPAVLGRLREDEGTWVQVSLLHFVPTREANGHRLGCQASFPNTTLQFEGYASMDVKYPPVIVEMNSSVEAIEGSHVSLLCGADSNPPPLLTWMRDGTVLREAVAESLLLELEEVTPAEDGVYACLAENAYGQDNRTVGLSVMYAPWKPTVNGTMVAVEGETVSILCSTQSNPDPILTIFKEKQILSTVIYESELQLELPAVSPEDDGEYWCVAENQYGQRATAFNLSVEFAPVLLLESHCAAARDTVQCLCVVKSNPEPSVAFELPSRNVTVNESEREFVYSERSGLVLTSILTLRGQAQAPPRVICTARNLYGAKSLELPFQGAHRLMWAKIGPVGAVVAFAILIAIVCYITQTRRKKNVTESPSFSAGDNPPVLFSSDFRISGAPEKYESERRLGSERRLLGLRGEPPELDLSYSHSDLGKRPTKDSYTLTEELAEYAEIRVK
Method: as §1, with “Cultured HEK293” for “Target binding of siglec-6 antibodies to siglec-6-expressing”, “expressing human siglec-6, cynomolgus siglec-6, or siglec 6 family members” for “was assessed by flow cytometry. Cultured HMC1.2 cells”, “anti-human” for “anti-human or anti-mouse”, “antibody.” for “antibodies.”, “Data analysis was performed using FlowJo Software.” for “All tested siglec-6 antibodies were capable of binding to cells expressing siglec-6.”

Row | Binder | MFI [1] [MFI] | Percent Positive for Siglec-6 on HMC1.2 cells [1] [%] | binding result [2] | binding result [3] | binding result [4] | binding result [5]
1 | B1 | 3130 | 99.9 | no binding | no binding | no binding | no binding
2 | B2 | 1940 | 99.9 | no binding | no binding | no binding | no binding
3 | B3 | 3200 | 100 | no binding | no binding | no binding | no binding
4 | B4 | 3700 | 99.9 | no binding | no binding | no binding | no binding
